From PMC9325726
Where no end group is shown, it is not given here. The star is where a group is joined. αGalNAc = CC(=O)N[C@@H]1[C@@H](O)[C@@H](O)[C@@H](CO)O[C@@H]1*

Target: T1, wild-type AM0627^A21-E506 (Akkermansia muciniphila) (UniProt B2UPI7)
T1 sequence: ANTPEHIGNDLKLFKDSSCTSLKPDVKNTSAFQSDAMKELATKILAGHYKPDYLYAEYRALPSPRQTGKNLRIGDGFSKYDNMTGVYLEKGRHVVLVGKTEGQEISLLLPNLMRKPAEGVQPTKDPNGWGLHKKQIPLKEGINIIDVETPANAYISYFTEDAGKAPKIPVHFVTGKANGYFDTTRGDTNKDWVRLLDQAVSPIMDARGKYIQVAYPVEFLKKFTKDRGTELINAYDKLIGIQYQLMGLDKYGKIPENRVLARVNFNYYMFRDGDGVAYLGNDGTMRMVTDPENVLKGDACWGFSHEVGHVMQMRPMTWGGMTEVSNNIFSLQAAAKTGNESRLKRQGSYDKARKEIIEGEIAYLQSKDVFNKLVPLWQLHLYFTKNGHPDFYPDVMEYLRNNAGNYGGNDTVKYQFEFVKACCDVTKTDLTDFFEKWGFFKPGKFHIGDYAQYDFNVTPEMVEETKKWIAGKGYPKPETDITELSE

B1: P2, bis-Tn glycopeptide (peptide)
peptide: TEAQT(αGalNAc)T(αGalNAc)PPPA-NH2
  cleavage of P2 (500 μM) by 0.4 μM enzyme at 37 °C, MALDI-TOF time course, printed for 5 and 15 min: 35%
  specific activity with P2 (500 μM), from the MALDI-TOF time course: 1.2 U/mg
